From US11306156
pKd: −log10 of the molar value.

Assays:
[1] = target: tissue factor (TF) antigen (UniProt P13726); assay: SPR (ProteOn), Fab captured by anti-penta-His, TF as analyte, 1:1 fit
[2] = target: tissue factor (TF) antigen (UniProt P13726); assay: SPR (ProteOn), against wild-type D3H44 Fab
[3] = target: tissue factor (TF) antigen (UniProt P13726); assay: SPR (ProteOn XPR36): Fab captured via His tag on anti-penta-His, TF as analyte, 1:1 fit
[4] = target: tissue factor (TF) antigen (UniProt P13726); assay: SPR; log ratio against wild-type D3H44 Fab
[5] = target: tissue factor (TF) antigen (UniProt P13726); assay: SPR KD against wild-type D3H44 Fab (reference KD 0.157 nM)
[6] = target: tissue factor (TF) antigen (UniProt P13726); assay: SPR (ProteOn), Fab captured on anti-penta-His, TF analyte, 1:1 fit

tissue factor (TF) antigen, sequence (P13726 33-251 limits assumed): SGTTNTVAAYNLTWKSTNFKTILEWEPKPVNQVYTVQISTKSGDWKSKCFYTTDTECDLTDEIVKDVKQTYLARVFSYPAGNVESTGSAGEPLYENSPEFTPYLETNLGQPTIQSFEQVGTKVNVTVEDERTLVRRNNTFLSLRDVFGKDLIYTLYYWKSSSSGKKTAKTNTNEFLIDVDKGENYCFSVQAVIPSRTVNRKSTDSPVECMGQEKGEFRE

D3H44 Fab heterodimer, H1L1 of LCCA set 9444 (H: L124R_Q179K; L: V133G_S176D_T180E)
pKd [1]: 9.55
Change in KD with respect to wild type (-(log(KD design) - log(KD wt))) [2]: -0.26

D3H44 Fab heterodimer, H1L1 of LCCA set 9575 (H: L143D_K145T_Q179E; L: T178R)
pKd [1]: 9.55
Change in KD with respect to wild type (-(log(KD design) - log(KD wt))) [2]: -0.25

D3H44 Fab heterodimer, H1L1 of LCCA set 9588 (H: L143E_K145T; L: Q124R)
pKd [1]: 9.55
Change in KD with respect to wild type (-(log(KD design) - log(KD wt))) [2]: -0.25

D3H44 Fab heterodimer, H1L1 of LCCA set 9620 (H: L143E_K145T_Q179D; L: Q124R_Q160K_T178R)
pKd [1]: 10.22
Change in KD with respect to wild type (-(log(KD design) - log(KD wt))) [2]: 0.39

D3H44 Fab heterodimer, H1L1 of LCCA set 9632 (H: L143E_K145T_Q179D; L: Q124R_T178R)
pKd [1]: 9.85
Change in KD with respect to wild type (-(log(KD design) - log(KD wt))) [2]: 0.04

D3H44 Fab heterodimer, H1L1 of LCCA set 9638 (H: L143E_K145T_Q179D; L: T178R)
pKd [1]: 9.96
Change in KD with respect to wild type (-(log(KD design) - log(KD wt))) [2]: 0.17

D3H44 Fab heterodimer, H1L1 of LCCA set 9684 (H: L143E_K145T_Q179E; L: T178R)
pKd [1]: 9.52
Change in KD with respect to wild type (-(log(KD design) - log(KD wt))) [2]: -0.28

D3H44 Fab heterodimer, H1L1 of LCCA set 9688 (H: L143E_K145T_Q179E_S188L; L: Q124R_T178R)
pKd [1]: 9.47
Change in KD with respect to wild type (-(log(KD design) - log(KD wt))) [2]: -0.34

D3H44 Fab heterodimer, H1L1 of LCCA set 9741 (H: L143R; L: Q124E_V133E_Q160F)
pKd [1]: 10.15
Change in KD with respect to wild type (-(log(KD design) - log(KD wt))) [2]: 0.34

D3H44 Fab heterodimer, H1L1 of LCCA set 9803 (H: Q179R; L: Q124E_S131T_T178F_T180E)
pKd [1]: 9.96
Change in KD with respect to wild type (-(log(KD design) - log(KD wt))) [2]: 0.14

D3H44 Fab heterodimer, H1L1 of LCCA set 9843 (H: S186K; L: Q124E_S131T_T178F_T180E)
pKd [1]: 9.77
Change in KD with respect to wild type (-(log(KD design) - log(KD wt))) [2]: -0.03

D3H44 Fab heterodimer, H1L1 of LCCA set 9863 (H: S186K; L: Q124E_T180E)
pKd [1]: 10.22
Change in KD with respect to wild type (-(log(KD design) - log(KD wt))) [2]: 0.46

D3H44 Fab heterodimer, H1L1 of LCCA set 9867 (H: S186R; L: Q124E_Q160E_T178E)
pKd [1]: 9.85
Change in KD with respect to wild type (-(log(KD design) - log(KD wt))) [2]: 0.06

D3H44 Fab heterodimer, H1L1 of LCCA set 9885 (H: S186R; L: Q124E_S176L_T180E)
pKd [1]: 9.74
Change in KD with respect to wild type (-(log(KD design) - log(KD wt))) [2]: -0.06

D3H44 Fab heterodimer, H1L1 of LCCA set 9887 (H: S186R; L: Q124E_T178E)
pKd [1]: 9.85
Change in KD with respect to wild type (-(log(KD design) - log(KD wt))) [2]: 0.06

D3H44 Fab heterodimer, H1L1 of LCCA set 9901 (H: S186R; L: Q124E_T180E)
pKd [1]: 10.15
Change in KD with respect to wild type (-(log(KD design) - log(KD wt))) [2]: 0.36

D3H44 Fab heterodimer, H1L1 of LCCA set 9983 (H: Q179K; L: S131E)
pKd [1]: 9.85
Change in KD with respect to wild type (-(log(KD design) - log(KD wt))) [2]: 0.05

D3H44 Fab heterodimer, H1L1 of LCCA set 9987 (H: L143E_K145T; L: Q124R_T178R)
pKd [1]: 9.96
Change in KD with respect to wild type (-(log(KD design) - log(KD wt))) [2]: 0.15

D3H44 Fab heterodimer, H1L1 of LCCA sets 9708, 9712 and 9716 (H: L143E_K145T_S188L; L: Q124R_Q160K_T178R)
pKd [1]: 9.62
Change in KD with respect to wild type (-(log(KD design) - log(KD wt))) [2]: -0.19

D3H44 Fab heterodimer, H1L1 of LCCA sets 9763 and 9773 (H: Q179K; L: Q124E_Q160E_T180E)
pKd [1]: 9.49
Change in KD with respect to wild type (-(log(KD design) - log(KD wt))) [2]: -0.31

D3H44 Fab heterodimer, H1L1 of LCCA sets 9831, 9833 and 9841 (H: S186K; L: Q124E_Q160E_T180E)
pKd [1]: 9.89
Change in KD with respect to wild type (-(log(KD design) - log(KD wt))) [2]: 0.09

D3H44 Fab heterodimer, H1L1 of LCCA sets 9869, 9871, 9874, 9876 and 9879 (H: S186R; L: Q124E_Q160E_T180E)
pKd [1]: 10.30
Change in KD with respect to wild type (-(log(KD design) - log(KD wt))) [2]: 0.51

D3H44 Fab heterodimer, H1L1 of LCCA sets 9881 and 9882 (H: S186R; L: Q124E_S131T_T178F_T180E)
pKd [1]: 9.96
Change in KD with respect to wild type (-(log(KD design) - log(KD wt))) [2]: 0.15

D3H44 Fab heterodimer, H L143E_K145T / L Q124R (H1L1 of LCCA set 9587)
pKd [3]: 9.55
Change in KD with respect to wild type (-(log(KD design) - log(KD wt))) [4]: -0.25

D3H44 Fab heterodimer, H L143E_K145T_Q179D / L Q124R_T178K (H1L1 of LCCA set 9626)
pKd [3]: 9.92
Change in KD with respect to wild type (-(log(KD design) - log(KD wt))) [4]: 0.12

D3H44 Fab heterodimer, H L143E_K145T_Q179E / L Q124R_Q160K_T178R (H1L1 of LCCA set 9654)
pKd [3]: 9.82
Change in KD with respect to wild type (-(log(KD design) - log(KD wt))) [4]: 0.02

D3H44 Fab heterodimer, H L143E_K145T_Q179E_S188L / L Q124R_T178R (H1L1 of LCCA sets 9696 and 9692)
pKd [3]: 9.47
Change in KD with respect to wild type (-(log(KD design) - log(KD wt))) [4]: -0.34

D3H44 Fab heterodimer, H L143R / L Q124E_V133E (H1L1 of LCCA sets 9735 and 9737)
pKd [3]: 9.70
Change in KD with respect to wild type (-(log(KD design) - log(KD wt))) [4]: -0.09

D3H44 Fab heterodimer, H Q179K / L Q124E_Q160E_T180E (H1L1 of LCCA sets 9761, 9769 and 9767)
pKd [3]: 9.49
Change in KD with respect to wild type (-(log(KD design) - log(KD wt))) [4]: -0.31

D3H44 Fab heterodimer, H Q179K / L Q124E_S176L_T180E (H1L1 of LCCA set 9782)
pKd [3]: 10.10
Change in KD with respect to wild type (-(log(KD design) - log(KD wt))) [4]: 0.28

D3H44 Fab heterodimer, H Q179K / L Q124E_T180E (H1L1 of LCCA sets 9797, 9794, 9789 and 9787)
pKd [3]: 9.96
Change in KD with respect to wild type (-(log(KD design) - log(KD wt))) [4]: 0.16

D3H44 Fab heterodimer, H Q179R / L Q124E_S176L_T180E (H1L1 of LCCA set 9808)
pKd [3]: 9.77
Change in KD with respect to wild type (-(log(KD design) - log(KD wt))) [4]: -0.02

D3H44 Fab heterodimer, H S186K / L Q124E_Q160E_T178E (H1L1 of LCCA set 9829)
pKd [3]: 10.22
Change in KD with respect to wild type (-(log(KD design) - log(KD wt))) [4]: 0.41

D3H44 Fab heterodimer, H S186K / L Q124E_Q160E_T180E (H1L1 of LCCA sets 9836 and 9841)
pKd [3]: 9.89
Change in KD with respect to wild type (-(log(KD design) - log(KD wt))) [4]: 0.09

D3H44 Fab heterodimer, H S186K / L Q124E_S131T_T178Y_T180E (H1L1 of LCCA set 9846)
pKd [3]: 9.89
Change in KD with respect to wild type (-(log(KD design) - log(KD wt))) [4]: 0.09

D3H44 Fab heterodimer, H: Q179K, L: Q124E_T180E (H1L1 Fab of LCCA sets 9787, 9792 and 9794)
Change in KD with respect to wild type (-(log(KD design) - log(KD wt))) [5]: 0.16
pKd [6]: 9.96

D3H44 Fab heterodimer, H: Q179R, L: Q124E_Q160E_T178E (H1L1 Fab of LCCA set 9802)
Change in KD with respect to wild type (-(log(KD design) - log(KD wt))) [5]: 0.16
pKd [6]: 9.96

D3H44 Fab heterodimer, H: Q179R, L: Q124E_T178E (H1L1 Fab of LCCA set 9810)
Change in KD with respect to wild type (-(log(KD design) - log(KD wt))) [5]: 0.04
pKd [6]: 9.85

D3H44 Fab heterodimer, H: Q179R, L: Q124E_T178E_T180E (H1L1 Fab of LCCA set 9812)
Change in KD with respect to wild type (-(log(KD design) - log(KD wt))) [5]: -0.01
pKd [6]: 9.80

D3H44 Fab heterodimer, H: S186K, L: Q124E_Q160E_T178E (H1L1 Fab of LCCA set 9830)
Change in KD with respect to wild type (-(log(KD design) - log(KD wt))) [5]: 0.41
pKd [6]: 10.22

D3H44 Fab heterodimer, H: S186K, L: Q124E_Q160E_T180E (H1L1 Fab of LCCA set 9838)
Change in KD with respect to wild type (-(log(KD design) - log(KD wt))) [5]: 0.09
pKd [6]: 9.89

D3H44 Fab heterodimer, H: S186K, L: Q124E_T178E (H1L1 Fab of LCCA set 9850)
Change in KD with respect to wild type (-(log(KD design) - log(KD wt))) [5]: 0.01
pKd [6]: 9.82

D3H44 Fab heterodimer, H: S186K, L: Q124E_T178E_T180E (H1L1 Fab of LCCA set 9852)
Change in KD with respect to wild type (-(log(KD design) - log(KD wt))) [5]: 0.02
pKd [6]: 9.82

D3H44 Fab heterodimer, H: S186K, L: Q124E_T180E (H1L1 Fab of LCCA sets 9853 and 9858)
Change in KD with respect to wild type (-(log(KD design) - log(KD wt))) [5]: 0.46
pKd [6]: 10.22

D3H44 Fab heterodimer, H: S186R, L: Q124E_Q160E_T178E (H1L1 Fab of LCCA set 9868)
Change in KD with respect to wild type (-(log(KD design) - log(KD wt))) [5]: 0.06
pKd [6]: 9.85

D3H44 Fab heterodimer, H: S186R, L: Q124E_T178E (H1L1 Fab of LCCA set 9888)
Change in KD with respect to wild type (-(log(KD design) - log(KD wt))) [5]: 0.06
pKd [6]: 9.85

D3H44 Fab heterodimer, H: S186R, L: Q124E_T178E_T180E (H1L1 Fab of LCCA set 9890)
Change in KD with respect to wild type (-(log(KD design) - log(KD wt))) [5]: 0.49
pKd [6]: 10.30

D3H44 Fab heterodimer, H: S186R, L: Q124E_T180E (H1L1 Fab of LCCA sets 9891, 9893, 9896 and 9898)
Change in KD with respect to wild type (-(log(KD design) - log(KD wt))) [5]: 0.36
pKd [6]: 10.15
